Where two headings read alike, the source gives them in different places.
Tests used:
[1] = target: KRAS4b residues 1–169 with N-terminal cysteine, Alexa Fluor 647-labeled, GMP-PNP-bound (UniProt P01116); assay: MST; 10 μL of 5 nM Alexa Fluor 647-labeled GMP-PNP-bound KRAS mixed with 10 μL of serially diluted BRAF proteins (10 pM to 1 μM); 0.05% Tween-20; Monolith NT.115pico; three independent dilution series averaged
[2] = target: CRAF RBD-CRD (Homo sapiens) (UniProt P04049); settings: cited from earlier work
[3] = target: CRAF RBD-CRD-C2 (Homo sapiens) (UniProt P04049); settings: cited from earlier work
[4] = target: CRAF RBD-CRD (Homo sapiens) (UniProt P04049); assay: SPR; settings: cited from earlier work
CRAF RBD (Homo sapiens) = CRAF RBD (Homo sapiens) (UniProt P04049); settings: cited from earlier work

| Substance | Kd [1] | Kd [2] | Kd [3] | Kd [4] | Kd (CRAF RBD (Homo sapiens)) |
| --- | --- | --- | --- | --- | --- |
| BRAF/14-3-3 (full length, active dimer) (from UniProt P15056 1-766) (complex) | 0.105 µM |  |  |  |  |
| BRAF/MEK/14-3-3 (autoinhibited), as used for MST (from UniProt P15056 1-766; Q02750 1-393) (complex) | 0.127 µM |  |  |  |  |
| KRAS (from UniProt P01116) |  | 0.191 µM | 0.188 µM | 0.188 µM | 0.0212 µM |

From PMC10387098
